Source: PMC4192513, “A Novel Protein-Protein Interaction in the RES (REtention and Splicing) Complex” (The Journal of Biological Chemistry, 2014)
Ends that are not written are not given here.

Columns and labels:
[1] = Precipitation / solubility of the sample on addition of Bud13p peptide to 15N-labeled Snu17p; assay type: physicochemical; conditions: addition to recombinant 15N-labeled Snu17p, NMR titration
Description: (§1) Recombinant proteins were purified by sonicating the harvested cell pellet in 25 ml of lysis buffer (20 mM Tris, pH 7.5, 300 mM NaCl, 10 mM imidazole, 1 mM DTT, and 0.02% NaN3), also including protease inhibitors, RNase, lysozyme, and 0.2% IGEPAL. After high speed centrifugation (20,000 × g, 30 min) and filtering, each supernatant was applied to Ni-NTA-agarose resin (Qiagen). Several rounds of washing were performed with: lysis buffer including 0.2% IGEPAL, lysis buffer, lysis buffer with high salt concentration (1 M NaCl), and lysis buffer with high imidazole concentration (30 mM imidazole). Finally, each protein was eluted by applying 10 ml of a buffer containing 20 mM Tris, pH 7.5, 300 mM NaCl, 330 mM imidazole, 1 mM DTT, and 0.02% NaN3. Tobacco etch virus protease was added to each sample and incubated overnight at 4 °C. To remove the cleaved GST tag each sample was passed over a second Ni-NTA column. A second purification step included size exclusion chromatography (HiLoad, Superdex 75 16/60, GE Healthcare). In this step, proteins were buffer exchanged into the NMR buffer (20 mM sodium phosphate, pH 6.3, 25 mM NaCl, and 2 mM fresh DTT or Tris(2-carboxyethyl)phosphine, 0.02% NaN3). Stoichiometric hybrid-labeled samples were prepared by mixing excess Bud13p with Snu17p and performing another step of size exclusion chromatography (HiLoad, Superdex 75 16/60, GE Healthcare). […]

Snu17p (residues 1–113) [2] = target: T1, Snu17p (residues 1–113) (Saccharomyces cerevisiae, UniProt P40565); assay: NMR titration (1H,15N correlation spectra) of 15N-labeled Snu17p (residues 1–113) with Bud13p peptides; assay type: binding; conditions: 298 K, 20 mM sodium phosphate, pH 6.3, 25 mM NaCl
T1 construct: The concentration of Snu17p (residues 1–113) in the cell (1440 μl) varied between 30 and 70 μM; His6 (N, cleaved yes); GST (N, cleaved yes); made in house; host or cells: Escherichia coli BL21(DE3) pLysS
T1 sequence (P40565 1-113): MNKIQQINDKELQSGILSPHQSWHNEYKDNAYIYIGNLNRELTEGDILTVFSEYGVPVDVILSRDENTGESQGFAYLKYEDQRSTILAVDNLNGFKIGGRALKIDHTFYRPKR
Description: Recombinant proteins were purified by sonicating the harvested cell pellet in 25 ml of lysis buffer (20 mM Tris, pH 7.5, 300 mM NaCl, 10 mM imidazole, 1 mM DTT, and 0.02% NaN3), also including protease inhibitors, RNase, lysozyme, and 0.2% IGEPAL. After high speed centrifugation (20,000 × g, 30 min) and filtering, each supernatant was applied to Ni-NTA-agarose resin (Qiagen). Several rounds of washing were performed with: lysis buffer including 0.2% IGEPAL, lysis buffer, lysis buffer with high salt concentration (1 M NaCl), and lysis buffer with high imidazole concentration (30 mM imidazole). Finally, each protein was eluted by applying 10 ml of a buffer containing 20 mM Tris, pH 7.5, 300 mM NaCl, 330 mM imidazole, 1 mM DTT, and 0.02% NaN3. Tobacco etch virus protease was added to each sample and incubated overnight at 4 °C. To remove the cleaved GST tag each sample was passed over a second Ni-NTA column. A second purification step included size exclusion chromatography (HiLoad, Superdex 75 16/60, GE Healthcare). In this step, proteins were buffer exchanged into the NMR buffer (20 mM sodium phosphate, pH 6.3, 25 mM NaCl, and 2 mM fresh DTT or Tris(2-carboxyethyl)phosphine, 0.02% NaN3). Stoichiometric hybrid-labeled samples were prepared by mixing excess Bud13p with Snu17p and performing another step of size exclusion chromatography (HiLoad, Superdex 75 16/60, GE Healthcare). Two shorter peptides of Bud13p (residues 221–242 or residues 225–238) were purchased from Peptide Specialty Laboratories (Heidelberg, Germany), and extensively dialyzed before binding experiments.
NMR spectra were recorded at 298 K on an AVIII800 Bruker NMR spectrometer equipped with a cryogenic triple resonance gradient probe. Spectra were processed using NMRPipe ([21]). Protein backbone and side chain assignments were obtained from standard triple resonance experiments ([22]). NOE distance restraints were obtained from ^15N- and ^13C-edited three-dimensional NOESY spectra (mixing time 70 ms) where only Snu17p or Bud13p proteins were labeled. Intermolecular NOE restraints were derived from three-dimensional ^15N,^13C-filtered, ^13C-edited NOESY spectra (mixing time 70 ms) ([22], [23]). Stereospecific assignments of pro-chiral methyl groups of valine and leucine were obtained using 10% ^13C-labeled protein samples ([24]).
To characterize the unexpected molecular features of the Snu17p-Bud13p interaction we proceeded with biophysical and structural characterization of the binary complex (Fig. 3). […] We tested binding to a series of Bud13p fragments to identify the minimum binding region in Bud13p (Fig. 3, a and b). NMR titrations confirmed binding to a Bud13p peptide encompassing residues 201–266 as has been shown previously ([20]).

Snu17p = assay: NMR of 15N-labeled Bud13p in complex with unlabeled Snu17p; assay type: binding, Saccharomyces cerevisiae; conditions: 15N-labeled Bud13p (residues 222–256), 298 K
Description: as §1, with “NaN3).” for “NaN3). Stoichiometric hybrid-labeled samples were prepared by mixing excess Bud13p with Snu17p and performing another step of size exclusion chromatography (HiLoad, Superdex 75 16/60, GE Healthcare).”
(§2) NMR spectra were recorded at 298 K on an AVIII800 Bruker NMR spectrometer equipped with a cryogenic triple resonance gradient probe. […]

Snu17p (residues 25–113) = assay: NMR chemical shift perturbation with shorter Snu17p protein (residues 25–113); assay type: binding, Saccharomyces cerevisiae; conditions: shorter Snu17p protein (residues 25–113) compared with residues 1–113; data not shown
Description: as §1, with “NaN3).” for “NaN3). Stoichiometric hybrid-labeled samples were prepared by mixing excess Bud13p with Snu17p and performing another step of size exclusion chromatography (HiLoad, Superdex 75 16/60, GE Healthcare).”
as §2

Snu17p (residues 1–113) [3] = target: T1, Snu17p (residues 1–113); assay: Isothermal titration calorimetry (ITC) of Bud13p ligands binding to Snu17p; conditions: 25 °C, NMR buffer pH 6.3
Description: as §1

| Substance | precipitation / solubility of the sample [1] | NMR chemical shift perturbations (CSPs) of Snu17p (Snu17p (residues 1–113) [2]) | chemical shift changes in Bud13p spectra on binding to Snu17p (Snu17p) | NMR CSPs induced by Bud13p binding (Snu17p (residues 25–113)) | binding affinity (in words) (Snu17p (residues 1–113) [3]) |
| --- | --- | --- | --- | --- | --- |
| Bud13p^201-266: Bud13p residues 201–266, recombinant from E. coli, GST tag cleaved | led to precipitation of the sample | extensive chemical shift perturbations (CSPs) |  |  |  |
| Bud13p^222-256: Bud13p residues 222–256, recombinant from E. coli; optimal Bud13p peptide, minimum interacting region | proteins remained in solution | large chemical shift changes, induced by Bud13p binding, map on the two helices plus adjacent loop regions of the Snu17p RRM-fold | extensive chemical shift changes in Bud13p spectra | Virtually identical NMR CSPs |  |
| Bud13p^225-238: Bud13p residues 225–238, purchased from Peptide Specialty Laboratories (Heidelberg) (AIMPGSRWDGVHRS) |  | hardly induced any NMR spectral changes for Snu17p |  |  | binds very weakly |
| ENRFAIMPGSRWDGVHRSNGFE [Bud13p^221-242] |  | affected the same Snu17p residues but to a lesser extent compared with the longer ones |  |  |  |
